Data as given in the nanobody polyreactivity screen of Harvey et al. (2022).

Test: yeast display, Sf9 membrane polyspecificity reagent, FACS + sequencing; frameworks hold sequencing errors
How it was run: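 Nanobodies came from a synthetic yeast display library in Saccharomyces cerevisiae BJ5465, induced with galactose for 36–48 hours and stained for 1 hour at 4 °C with 10% biotinylated, detergent-solubilized Sf9 membrane reagent. Cells were enriched on streptavidin microbeads and then FACS-sorted, with low and high (top ~1%) gates set on anti-HA fluorescence for expression and streptavidin fluorescence for reagent binding. Each polyreactivity label reflects the gate a clone came from. Genes were amplified by colony PCR, sequenced by MiSeq 2 × 250 and filtered by CDR length.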
For “QVQLVESGGGLVQARGSLRLSCAASGSTFYPYAMGWYRQAPGKERELVAAISSGGSTSYADSVKGRFTISRDNAKNTVYLQMNSLKPEDTAVYYCNASSPGAVPVYDYDYWGQGTQVTVSS”, the “polyreactivity (PSR sort gate)” value was “low polyreactivity”.
With “QVQLVESGGGLVQARGSLRLSCAAYRITFGWYAMGWYRQAHAKERELVASISSSGSTNYADSVKGRFTISRDNAKNTVYLQMNSLKPEDTAVYYCNKDYRRRHYYIYVIEGDYWGQGTQVTVSS” the “polyreactivity (PSR sort gate)” value was “low polyreactivity”.
In the case of “QVQLVESGGGLVQARGSLRLSCPASGITFARYAMEWSRQAPGKERELVAAISYGGGSTYYADSVKGRFTISRDNAKNTVYLQMNSLKPEDTSVYYCNNVPRKSYGYWGQGTQVTVSS”, the “polyreactivity (PSR sort gate)” value is reported as “high polyreactivity”.
With “QVQLVESGGGLVQARGSLRLSCPASGSIFSLNAMGWYRQAPGKERELVASISRGGSTNYADSVKGRFTISRDNAKNTVYLQMNSLKPEDTAVYYCAAYWYYYTKSQSSYRFDYWGQGTQVTVSS” the “polyreactivity (PSR sort gate)” value was “low polyreactivity”.
In the case of “QVQLVESGGGLVQARGSLRLSSAASGYIFYHYAMGWYRQSPGKERELVAAISSGGGSTYYADSVKGRFTISRDYAKNTVSLQINSLKPEDTAVYYCNAVRYYTKYDYWGQGTQVTVSS”, the “polyreactivity (PSR sort gate)” value is reported as “high polyreactivity”.
For “QVQLVESGGGLVQARGSLRLTCAASGSTFSENAMGWYRQAPGKERELVAAISRGGGRTYYADSVKGRFTISRDNAKNTVYLQMNSLKPEDTAVYYCNAGLPAGNHGYDYWGQGTQVTVSS”, the “polyreactivity (PSR sort gate)” value was “high polyreactivity”.
With “QVQLVESGGGLVQARVSLRLICAASAIIIYDNAIGWYRQAPGKESEFVATINYSGDSTYYADSVKGRFTISRDNANNTVYLQMNSLKPEDTAVYYCATDGAWQYYWVYSHVYWGQGTQVTVSS” the “polyreactivity (PSR sort gate)” value was “low polyreactivity”.
For “QVQLVESGGGLVQAVGSHRLSCAASGFIFTSYAMGWYRQAPGKERELVAAITRSGGRTYYADSVKGRFTISRDNAKNTVYLQMNSLKPEDTAVYYCAAVTFYQSPARGYWGQGTQVTVSS”, the “polyreactivity (PSR sort gate)” value was “high polyreactivity”.
With “QVQLVESGGGLVQAVGSLRLSCAASGFIFVGYAMGWYRQAPGKERELVAAITGGGTTYYADSVKGRFTISRDNAKNSVYLQMNSLKPEETAVYYCAKDRPRKDTQRWRYGHWGQGTQVTVSS” the “polyreactivity (PSR sort gate)” value was “high polyreactivity”.
In the case of “QVQLVESGGGLVQAVGSLRLSCAASGFILGGYALGWYRQAPGKERELVAAISFSTVATYYADSVKGRFTNSRDNAKNTVYLQMNSLKPEDTAVYYCAARRLGYYRKVKELDYWGQGTQVTVST”, the “polyreactivity (PSR sort gate)” value is reported as “high polyreactivity”.
With “QVQLVESGGGLVQAVGSLRLSCAASGHIFCYYTMGRYRQAPGKERELVAGITIGGSTNYADSVKGRFTISRDNAKNTVYLQMNSLKPEDTAVYYCNVVKYVYIYSYWEYYYWGQGTQVTVSS” the “polyreactivity (PSR sort gate)” value was “low polyreactivity”.
In the case of “QVQLVESGGGLVQAVGSLRLSCAASGIIFDSYAMGWYRQAPGKERELVAAITSRGGRTYYADSVKGRFTISRDNAKNTVYLQMNSLKPEDTAVYYCAADDGWIEPVYGYYEHEYWGQGTQVTVSS”, the “polyreactivity (PSR sort gate)” value is reported as “low polyreactivity”.
With “QVQLVESGGGLVQAVGSLRLSCAASGRIFDTYVMGWYRQAPGKEREMVAAISGSGGSTYYADSVKGRFTISRDNAKNTVYLQMNSLKPEDTAVYYCSAARRYYAYRYDYWGQGTQVTVSS” the “polyreactivity (PSR sort gate)” value was “high polyreactivity”.
In the case of “QVQLVESGGGLVQAVGSLRLSCAASGRIFYSYAMGWYRQAPGKERELVAAITRGGSTSYADSVKGRFTISRDNAKNTVYLQMNSLKPDDTAVYYCATRQFYSYWKYYYWGQGTQVTVSS”, the “polyreactivity (PSR sort gate)” value is reported as “high polyreactivity”.
For “QVQLVESGGGLVQAVGSLRLSCAASGRTFSEYAMGWYRQAPGKERELVAAITGTGGSTYYADSVKGRFTISRDNAKNTVYLQMNSLKPEDTAVYFCAAEYYRYYFLSVSTDDYWGQGTQVTVSS”, the “polyreactivity (PSR sort gate)” value was “high polyreactivity”.
With “QVQLVESGGGLVQAVGSLRLSCAASGSIFRRNVMGWYRPAPGKERELVATLTVGGSTYYADSVKGRFTISRDNAKNTVYLQMNSLIPEDTAVYYCAAYSPYLRSWYDYWGQGTQGTVSS” the “polyreactivity (PSR sort gate)” value was “high polyreactivity”.
In the case of “QVQLVESGGGLVQAVGSLRLSCAASGSTFKAYAMGWYRQAPGKERELVAAITKSGGRTYYADSVKGRFTISRDNAKNTVYLQMNSLKPEDTAVYYCAAVFRPDSSAYRYYYLGQGTQVTVSS”, the “polyreactivity (PSR sort gate)” value is reported as “high polyreactivity”.
For “QVQLVESGGGLVQAVGSLRLSCAASGSTFNRYALGWYRQAPGKERQLVAAITVRGNTYYADSVKGRFTISRDNAKNTVYLQMNSLKPEDTAVYYCAARIYYLYKDRRLGYYWGQGTQVTVSS”, the “polyreactivity (PSR sort gate)” value was “high polyreactivity”.
In the case of “QVQLVESGGGLVQAVGSLRLSCAASGSTLVYYAMGWYRQAPGKERELVATITRSGGNTYYADSVKGRFTISRDNAKNTVYLQMNSLNPEDTAVYYWAARRLYGSQRGYWGQGTQVTVSS”, the “polyreactivity (PSR sort gate)” value is reported as “high polyreactivity”.
In the case of “QVQLVESGGGLVQAVGSLRLSCAASGTISVANAMGWYRQAPGKERELVAVINTSGTRTYYADSVKGRFTISRDNAKNTVYLQMNSLKPEDTAVYYCAARLRGVQGYEYWGQGTQVTVSS”, the “polyreactivity (PSR sort gate)” value is reported as “low polyreactivity”.
With “QVQLVESGGGLVQAVGSLRLSCAASVSTFRHYAMGWYRQAPGKERELVAAISSTGGSTYYADSVKGRFTISRDNAKNTVYLQMNSLKPEDTAVYYCAARRLYWGQGTQVTVSS” the “polyreactivity (PSR sort gate)” value was “high polyreactivity”.
For “QVQLVESGGGLVQAVGSLRLSCAPSGRTLNNYTMGWNRPAPGKERELVAAIRWSTGSTYYADSVKGRFTISRDNSKNTVYLQMNSLKPEDTAVYYCNAYRYQWAQSTEYDYWGQGTQVTVSS”, the “polyreactivity (PSR sort gate)” value was “high polyreactivity”.
In the case of “QVQLVESGGGLVQAVGSLRLSCAPSGSLFPGYAMGWYRQAPGKERELVAAITFSGGSTYYADSVKGRFTISRDYAKQSVYLPMNSLKPEDTAVYYCAAPGWYGGYPSYYYWGQGTQVTVSS”, the “polyreactivity (PSR sort gate)” value is reported as “low polyreactivity”.
With “QVQLVESGGGLVQAVGSLRLSCAPSGTTFTHYAMGWYRKAPGKERELVAAISWSGGSTYYADSVKGRFTISRDNAKNTVYLQMNSLKQEDCAVYYCKTYGVSYYGSGYYWGQGTQVTVSS” the “polyreactivity (PSR sort gate)” value was “high polyreactivity”.
In the case of “QVQLVESGGGLVQAVRSLRLSSAASGLTFGRNAMGWYRQAPGKERELVAAISRSGGRTSYADSVKGRFTISRDNAKNTVYLQMNSLKPEDTAVYYCAARSDVYTHDYWGQGTQVTVSS”, the “polyreactivity (PSR sort gate)” value is reported as “high polyreactivity”.
In the case of “QVQLVESGGGLVQEGGILRLSCAASGRTFTWYAMEWYRQAPGKERELVAAISFSGGSTYYADSVKGRFTISRDNAKNTVYLQMNSLKPEDSAVYYCARASGDAWEGPRLDYWGQGTQVTVSS”, the “polyreactivity (PSR sort gate)” value is reported as “low polyreactivity”.
For “QVQLVESGGGLVQEGGSHRLSCAASASTFWSYTMGWYRQAPGKERELVAAISPSGGSTSYADSVKGRFTISRDHAKNTVYLQMNSLKPEDTAVYYGAADDRYGSRYSYWGHGTQVTVSS”, the “polyreactivity (PSR sort gate)” value was “high polyreactivity”.
In the case of “QVQLVESGGGLVQEGGSIRLSCDASGFIFDVYAIGWYRTAAGKERELVDAISSVGSTYYADSVKGRFTISRDNATNTVYLQMNSLKPEDTAVYYCADVRFYTYNYWGQGTQVTVSS”, the “polyreactivity (PSR sort gate)” value is reported as “low polyreactivity”.
With “QVQLVESGGGLVQEGGSLRFSCAASGSTFHSYAMGWYRQAPGKERELVAAISTSGGTTYYADSVKGRFTISRDNAKNTVYLQMNSLKPEDTAVYYCAARRVTSPFGTDSWGQGTQVTVSS” the “polyreactivity (PSR sort gate)” value was “low polyreactivity”.
For “QVQLVESGGGLVQEGGSLRLICAASGRTFGTNAMGWYRQAPAKERELVAGINYSDGSTYYADSVKGRFTITRDNAKNTVYLQMNSMKPEDTAVYYCAADPGWAWWELNYWGQGTQVTVSS”, the “polyreactivity (PSR sort gate)” value was “low polyreactivity”.
With “QVQLVESGGGLVQEGGSLRLICAASGRTFYINDMGWYRQAPGKEREFVAAITWSGGSTYYADSVKGRFTISRDNAKNTVYLQMNSLKPEDTAVYYCARPYRGSPRYYYWGQGTQVTVSS” the “polyreactivity (PSR sort gate)” value was “high polyreactivity”.
In the case of “QVQLVESGGGLVQEGGSLRLICAASGSTFGVNAMGWYRQAPGKERELVAAISSSGYSTYADSVKGRFTISRDNAKNTVYLQMNSLKPEDTAVYYCNKTTLLTVEYDYWGQGTQVTVSS”, the “polyreactivity (PSR sort gate)” value is reported as “low polyreactivity”.
With “QVQLVESGGGLVQEGGSLRLRCAASGSIFPYNAMGWYRQAPGKERELVAAISSTGGRTYYADSVKGRFTISRDNAKNTVYLQMNSLKPEDTAVYYCAARLYDKPGFYSWGEGTQVTVSS” the “polyreactivity (PSR sort gate)” value was “high polyreactivity”.
For “QVQLVESGGGLVQEGGSLRLSCAASGFIFRGNGMGWYRQAPGKERELVAAIDSTDSKNYADSVKGRFTISRDNAKNTVYLQMNSLKPEDTAVYYCAAGVSWYGPYDYLWFYAFDYWGQGTQVTVSS”, the “polyreactivity (PSR sort gate)” value was “low polyreactivity”.
For “QVQLVESGGGLVQEGGSLRLSCAASGFILVNYAMGWYRQAPGKEREFVAAISGSGTRTYYADSVKGRFTISRDNAKNTVYLQMNSLKPEDTAVYYCAARVGYRKLYYYWGQGTQVTVSS”, the “polyreactivity (PSR sort gate)” value was “high polyreactivity”.
With “QVQLVESGGGLVQEGGSLRLSCAASGFTFDSNAMGWYRQAPGKERELVAAISTGGSTYYADSVKGRFTISRDNAKNTVYLQMNSLKPEDTAVYYCARDPPYPDTWYGYWGQGTQVTVSS” the “polyreactivity (PSR sort gate)” value was “low polyreactivity”.
For “QVQLVESGGGLVQEGGSLRLSCAASGFTFRANAMGWYRQAPGKERELVAVITGSGRTYYSDSVKGRFTISRDNAKNTVYLQMNRLKPEYTAVYYCAARAAYRVSSAGYDSLGQGTQVTVSS”, the “polyreactivity (PSR sort gate)” value was “high polyreactivity”.
With “QVQLVESGGGLVQEGGSLRLSCAASGFTFRWYAMGWYRQPPRKERELFAVISSGGRTYYADSVKGRFTISRDNAKNTVYLEKNSLKPEDTAVYSCAAEFTDHYPDYWGYPLYDYWGQGTQVTVSS” the “polyreactivity (PSR sort gate)” value was “high polyreactivity”.
For “QVQLVESGGGLVQEGGSLRLSCAASGFTIFQYAMGWYRQAPGKERELVATITSAGSTNYADSVKGRFTISLDNAKNTVYLQMNSLIPEDTAVYYCNTKKLPYAEGYWGQGTQVSVSS”, the “polyreactivity (PSR sort gate)” value was “low polyreactivity”.
In the case of “QVQLVESGGGLVQEGGSLRLSCAASGGTFRWYTMGWYRQAPGKERELVAAISSTGSTYYADSVKGRFTISRDNAKNTVYLQMNSLKPEDTAVYYCNASYNGKGSWDLDYWGQGTQVTVSS”, the “polyreactivity (PSR sort gate)” value is reported as “high polyreactivity”.
With “QVQLVESGGGLVQEGGSLRLSCAASGGTFWLYTMGWYRQAPGKERELVAAITKSGGSTYYADSVKGRFTISRDNAKNTVYLQMNSLKPEDTAVYDCAARYSVYRDGYYWGQGTQVTVSS” the “polyreactivity (PSR sort gate)” value was “high polyreactivity”.
With “QVQLVESGGGLVQEGGSLRLSCAASGGTFYVNDMGWYRQAPGKERELVATITSGDSTNYADSVKGRFTISRDNAKNTVYLQRNCLKPEDTAVYYCNARGDVIVTPPKFSFNYVYWGQGTQVTVSS” the “polyreactivity (PSR sort gate)” value was “low polyreactivity”.
For “QVQLVESGGGLVQEGGSLRLSCAASGIIFLENAMGWYRQAPGKERELVAGISSGGNTNYADSVKARFTISRDNAKNTVYLHMNSLKPEDTAVYYCNARCHRAVPGDELGYWGQGTQLTVSS”, the “polyreactivity (PSR sort gate)” value was “low polyreactivity”.
